Measurements reported in publication PMC4072462.

Biological target: FabR_vc (N-terminal His6) (Vibrio cholerae, UniProt Q9KVJ2 1-213)
Assay: EMSA

Binder	binding result
fabAec B+D (dsDNA) DNA 1: TTTATTCCGAACTGATCGGACTTGTTCAGCGTACACGTGTTAGCTATCCTGCGTGC DNA 2: GCACGCAGGATAGCTAACACGTGTACGCTGAACAAGTCCGATCAGTTCGGAATAAA	binds
fabBec B+D (dsDNA) DNA 1: TCTATTAAATGGCTGATCGGACTTGTTCGGCGTACAAGTGTACGCTATTGTGCATTC DNA 2: GAATGCACAATAGCGTACACTTGTACGCCGAACAAGTCCGATCAGCCATTTAATAGA	binds
